Earlier results on one substance are cited in article PMC6023760.

This data set has as its target Thrombin exosite 2 (Homo sapiens) (UniProt P00734).

As for “Fibrin γ′-chain γ′ site (from UniProt P02679)”, the Kd (as a rule, the equilibrium constant for the complex coming apart) is 200 nM.
